Entries after “also recorded” stand apart in the source; their conditions may differ.
How the values were obtained:
Assay type in all cases: cell-based, human
α2(I) collagen mRNA = experiment: Real-time PCR for α2(I) collagen mRNA relative to 18S rRNA
TGF-β1 = TGF-β1 ELISA of fibroblast supernatants and lysates; settings: 300 ng/ml rhPARC
Excerpt: Transforming Growth Factor-β ELISA Assays. ELISA kits for TGF-β1 and TGF-β2 were purchased from R&D Systems. ELISA for TGF-β3 was custom developed using a DuoSet ELISA Development System (R&D Systems) following manufacturer's recommendations. […] Recombinant human TGF-β1, TGF-β2, and TGF-β3 from R&D Systems were used in serial dilutions for calibration of the assays. The minimal detection level in these assays was 10-20 pg/ml of TGF-β. Low serum cell culture medium containing 0.5% dialyzed fetal bovine serum had no detectable TGF-β and was used as a negative control in these assays. Each of LF1-LF4 cultures was tested in duplicates for each time point in at least three independent experiments.
Transforming Growth Factor-β1 ELISA Assays. ELISA kits for transforming growth factor (TGF)-β1 were purchased from R&D Systems (Minneapolis, Minn.), and fibroblast culture supernatants and whole cell lysates after 3, 6, 12, 24, 48, and 72 h activation with rhPARC were assayed in duplicates for total TGF-β1, according to the manufacturer's instructions. Low-serum cell culture medium containing 0.5% dialyzed fetal bovine serum had no detectable TGF-β1 and was used as a negative control in these assays.
ELISA kits for TGF-β1, -β2, and -β3 were purchased from R&D Systems and assays performed following manufacturer's recommendations. […] The minimal detection level in these assays was 10-20 pg/ml of TGF-β. […]

Sp1 = Sp1 immunoprecipitation and anti-phosphoserine Western blot; settings: fibroblasts activated with rhPARC up to 24 hours
Procedure: To determine if PARC stimulated phosphorylation of Sp1 and Smad3, these factors were immunoprecipitated from lysates of fibroblasts that had been activated with recombinant human PARC for up to 24 hours, and the levels of their phosphorylation were tested in Western blotting assays using anti-phosphoserine and anti-phospho-Smad2/3 antibodies. Equal loading was controlled by stripping the membranes and re-developing them with anti-Sp1, anti-Smad3 and anti-Smad2/3 antibodies (FIG. 17).
Preparation of fibroblast lysates, immunoprecipitation of Sp1 and Smad2/3, normalization of protein concentration in the samples with BioRad assays, electrophoretic separation, Western blotting, membrane stripping and re-development with different antibodies were performed as described in Atamas et al. (Am. J. Respir. Cell. Mol., 29:743-749 (2003); J. Immunol. 168: 1139-1145 (2002); and Arthritis Rheum., 42:1168-1178 (1999)), which are hereby incorporated by reference. Rabbit antibodies for total Smad2/3 and Sp1 were from Upstate (Waltham, Masss.). Antiphospho-Smad2/3 antibody and goat antibody for total Smad3 were from Santa Cruz Biotechnology (Santa Cruz, Calif.), as was anti-gp130 antibody used to confirm equal loading of the samples. Antiphosphoserine antibody was from Biomol (Plymouth Meeting, Pa.).

TGF-β1 mRNA = experiment: Real-time PCR for TGF-β mRNA; settings: LF1 and LF4, 300 ng/ml rhPARC
Procedure: Real-time PCR Quantification of Steady-State mRNA Levels. Total RNA was purified from fibroblast cultures using Trizol reagent (Invitrogen, Carlsbad, Calif.) following the manufacturer's recommendations. First-strand cDNA was synthesized in a 20-μl reaction mixture containing 1 μg of total RNA, 50 mM Tris HCl (pH 8.3), 75 mM KCl, 3 mM MgCl2, 0.5 mM of each dNTP, 1 μM of random hexamer primers, and 400 units of Moloney murine leukemia virus RT (Invitrogen). The reaction mixture was incubated at 37° C. for 60 minutes, then heated at 95° C. for 5 minutes. Real-time PCR was performed on a LightCycler system (Roche, Indianapolis, Ind.). The primers, PCR protocol, and product quantification for the internal control 18S ribosomal RNA were exactly as reported previously (Schmittgen T D et al.). All other primers and hybridization probes were designed and prepared by TIB Molbiol (Adelphia, N.J.). […] The following PCR conditions were used: activation at 95° C. for 10 min, followed by 35 cycles of denaturation at 95° C. for 3 s, primer annealing at 50° C. for 5 s, fluorescence readout (F12/F11) at 50° C., and extension at 72° C. for 15 s. Fold difference in gene expression relative to 18S rRNA between treated and untreated cultures was calculated using the 2-ΔΔCT method (Livak K J et al.).

ERK1/2 = experiment: Immunoblotting for phosphorylation of ERK1/2; settings: lung fibroblasts LF1/LF2 activated with rhPARC

B1: rhPARC: Recombinant human pulmonary and activation-regulated chemokine (CC chemokine CCL18), purchased from R&D Systems and Cell Sciences (protein)
chain: AQVGTNKELCCLVYTSWQIPQKFIVDYSETSPQCPKPGVILLTKRGRQICADPNKKWVQKYISDLKLNA
steady-state collagen α2(I) mRNA level versus control (α2(I) collagen mRNA; LF1 and LF2, 300 ng/ml rhPARC, 3 and 6 h): transiently increased; also recorded: higher than in control cells
higher concentration of collagen mRNA in treated samples versus control (α2(I) collagen mRNA; lung fibroblasts, 300 ng/ml rhPARC, 6 h): approximately 4 fold
maximal increase in production of TGFβ1 by fibroblasts (TGF-β1; 3-72 h, lung and dermal fibroblast lines): 1.3±0.2 fold
total TGF-β1 in culture supernatants after stimulation (TGF-β1; primary lung fibroblast cultures): decreased
level of Sp1 phosphorylation (Sp1): consistently increased
steady-state levels of TGF-β mRNAs, treated versus control (TGF-β1 mRNA): no difference in TGF-β1 mRNA levels
phosphorylation of ERK1/2 (ERK1/2): increased; also recorded: activated

Source: patent US20060009452A1, “Therapeutic targeting of PARC/CCL18 and its signaling in pulmonary fibrosis” (priority 2004, published 2006)
